Test results as given in patent US20120171195A1.

Experiments:
[1] = biological target: HLA-Cw*1701 (human); experiment: Luminex beads; MAb 1/800; PBS only
[2] = biological target: HLA-B*3701 (human); experiment: Luminex beads; MAb 1/800; PBS only
[3] = biological target: HLA-B*5101 (human); experiment: Luminex beads; MAb 1/800; PBS only
[4] = biological target: HLA-Cw*0303 (human); experiment: Luminex beads; MAb 1/800; PBS only
[5] = biological target: HLA-B*5801 (human); experiment: Luminex beads; MAb 1/800; PBS only
[6] = biological target: HLA-B*1511 (human) (UniProt P01889); experiment: Luminex beads; MAb 1/800; PBS only
[7] = biological target: HLA-Cw*0304 (human); experiment: Luminex beads; MAb 1/800; PBS only
[8] = biological target: HLA-B*4101 (human) (UniProt P01889); experiment: Luminex beads; MAb 1/800; PBS only
[9] = biological target: HLA-B*5201 (human); experiment: Luminex beads; MAb 1/800; PBS only
[10] = biological target: HLA-B*1513 (human); experiment: Luminex beads; MAb 1/800; PBS only
[11] = biological target: HLA-Cw*0602 (human) (UniProt P10321); experiment: Luminex beads; MAb 1/800; PBS only
[12] = biological target: HLA-Cw*1802 (human) (UniProt P10321); experiment: Luminex beads; MAb 1/800; PBS only
[13] = biological target: HLA-B*8201 (human) (UniProt P01889); experiment: Luminex beads; MAb 1/800; PBS only
[14] = biological target: HLA-B*4403 (human); experiment: Luminex beads; MAb 1/800; PBS only
[15] = biological target: HLA-Cw*1601 (human) (UniProt P10321); experiment: Luminex beads; MAb 1/800; PBS only
[16] = biological target: HLA-Cw*1701 (human); experiment: Luminex beads; MAb 1/400; competitor IgG-free serum
[17] = biological target: HLA-Cw*1802 (human) (UniProt P10321); experiment: as above
[18] = biological target: HLA-B*4006 (human) (UniProt P01889); experiment: as above
[19] = biological target: HLA-Cw*0801 (human) (UniProt P10321); experiment: as above
[20] = biological target: HLA-Cw*0202 (human); experiment: Luminex beads; MAb 1/200; PBS only
[21] = biological target: HLA-Cw*1701 (human); experiment: Luminex beads; MAb 1/200; PBS only
[22] = biological target: HLA-Cw*0501 (human); experiment: Luminex beads; MAb 1/200; PBS only
[23] = biological target: HLA-B*5801 (human); experiment: Luminex beads; MAb 1/200; PBS only
[24] = biological target: HLA-B*4501 (human); experiment: Luminex beads; MAb 1/200; PBS only
[25] = biological target: HLA-B*1401 (human) (UniProt P01889); experiment: Luminex beads; MAb 1/200; PBS only
[26] = biological target: HLA-Cw*1802 (human) (UniProt P10321); experiment: Luminex beads; MAb 1/200; PBS only
[27] = biological target: HLA-B*4006 (human) (UniProt P01889); experiment: Luminex beads; MAb 1/200; PBS only
[28] = biological target: HLA-B*2705 (human) (UniProt P01889); experiment: Luminex beads; MAb 1/1600; PBS only
[29] = biological target: HLA-Cw*0303 (human); experiment: Luminex beads; MAb 1/1600; PBS only
[30] = biological target: HLA-Cw*0304 (human); experiment: Luminex beads; MAb 1/1600; PBS only
[31] = biological target: HLA-B*5201 (human); experiment: Luminex beads; MAb 1/1600; PBS only
[32] = biological target: HLA-B*8201 (human) (UniProt P01889); experiment: Luminex beads; MAb 1/1600; PBS only
[33] = biological target: HLA-Cw*1601 (human) (UniProt P10321); experiment: Luminex beads; MAb 1/1600; PBS only
[34] = biological target: HLA-B*4601 (human) (UniProt P01889); experiment: Luminex beads; MAb 1/1600; PBS only
[35] = biological target: HLA-Cw*0202 (human); experiment: Luminex beads; MAb 1/100; PBS only
[36] = biological target: HLA-B*5101 (human); experiment: Luminex beads; MAb 1/100; PBS only
[37] = biological target: HLA-B*4403 (human); experiment: Luminex beads; MAb 1/100; PBS only
[38] = biological target: HLA-Cw*1802 (human) (UniProt P10321); experiment: Luminex beads; MAb 1/400; PBS only
[39] = biological target: HLA-Cw*0801 (human) (UniProt P10321); experiment: Luminex beads; MAb 1/400; PBS only
[40] = biological target: HLA-Cw*0302 (human) (UniProt P10321); experiment: Luminex beads; MAb 1/400; PBS only
[41] = biological target: HLA-Cw*0501 (human); experiment: Luminex beads; MAb 1/200; competitor rHLA-E
[42] = biological target: HLA-B*4701 (human); experiment: Luminex beads; MAb 1/200; competitor rHLA-E
[43] = biological target: HLA-Cw*0702 (human) (UniProt P10321); experiment: Luminex beads; MAb 1/200; competitor rHLA-E
[44] = biological target: HLA-B*5201 (human); experiment: Luminex beads; MAb 1/200; competitor rHLA-E
[45] = biological target: HLA-Cw*1502 (human); experiment: Luminex beads; MAb 1/200; competitor rHLA-E
[46] = biological target: HLA-B*4402 (human); experiment: Luminex beads; MAb 1/200; competitor rHLA-E
[47] = biological target: HLA-B*4403 (human); experiment: Luminex beads; MAb 1/200; competitor rHLA-E
[48] = biological target: HLA-Cw*0302 (human) (UniProt P10321); experiment: Luminex beads; MAb 1/200; competitor rHLA-E

- MFI [1]: 847 MFI
- MFI [2]: 993 MFI
- MFI [3]: 515 MFI
- MFI [4]: 805 MFI
- MFI [5]: 835 MFI
- MFI [6]: 796 MFI
- MFI [7]: 783 MFI
- MFI [8]: 960 MFI
- MFI [9]: 786 MFI
- MFI [10]: 760 MFI
- MFI [11]: 839 MFI
- MFI [12]: 4090 MFI
- MFI [13]: 614 MFI
- MFI [14]: 983 MFI
- MFI [15]: 752 MFI
- MFI [16]: 1360 MFI
- MFI [17]: 7220 MFI
- MFI [18]: 5550 MFI
- MFI [19]: 3530 MFI
- MFI [20]: 3020 MFI
- MFI [21]: 2270 MFI
- MFI [22]: 5830 MFI
- MFI [23]: 2830 MFI
- MFI [24]: 3670 MFI
- MFI [25]: 5330 MFI
- MFI [26]: 8830 MFI
- MFI [27]: 7010 MFI
- MFI [28]: 191 MFI
- MFI [29]: 530 MFI
- MFI [30]: 512 MFI
- MFI [31]: 537 MFI
- MFI [32]: 417 MFI
- MFI [33]: 524 MFI
- MFI [34]: 375 MFI
- MFI [35]: 3880 MFI
- MFI [36]: 2210 MFI
- MFI [37]: 3680 MFI
- MFI [38]: 7040 MFI
- MFI [39]: 3340 MFI
- MFI [40]: 1360 MFI
- MFI [41]: 147 MFI
- MFI [42]: 67 MFI
- MFI [43]: 137 MFI
- MFI [44]: 87 MFI
- MFI [45]: 86 MFI
- MFI [46]: 66 MFI
- MFI [47]: 75 MFI
- MFI [48]: 137 MFI
Substance: murine monoclonal antibody (MAb) MEM-E/02
